One block for each sequence: values may come before it.
Key:
[1] = molecular target: HLA-A*02:01; assay: IEDB peptide-MHC binding, purified MHC/competitive/fluorescence; filed as Kd, often an IC50 or EC50 that approximates it; ≥ and ≤ were set here for values at or beyond the usual limits of such assays
[2] = molecular target: HLA-A*02:12; assay: as above
[3] = molecular target: HLA-A*02:16; assay: as above
[4] = molecular target: HLA-A*02:19; assay: as above
[5] = molecular target: HLA-A*03:01; assay: as above
[6] = molecular target: HLA-A*24:03; assay: as above; settings: source organism: Rickettsia sibirica 246
[7] = molecular target: HLA-A*26:01; assay: as above
[8] = molecular target: HLA-A*29:02; assay: as above
[9] = molecular target: HLA-A*68:02; assay: as above
[10] = molecular target: HLA-A*69:01; assay: as above
[11] = molecular target: HLA-B*18:01; assay: as above
[12] = molecular target: HLA-B*27:03; assay: as above
[13] = molecular target: HLA-B*39:01; assay: as above
[14] = molecular target: HLA-B*51:01; assay: as above
[15] = molecular target: HLA-B*57:01; assay: as above
[16] = molecular target: HLA-A*01:01; assay: IEDB peptide-MHC binding, purified MHC/direct/fluorescence; filed as Kd, often an IC50 or EC50 that approximates it; ≥ and ≤ were set here for values at or beyond the usual limits of such assays
[17] = molecular target: HLA-A*02:01; assay: as above
[18] = molecular target: HLA-A*03:01; assay: as above
[19] = molecular target: HLA-A*11:01; assay: as above
[20] = molecular target: HLA-A*24:03; assay: as above
[21] = molecular target: HLA-A*26:01; assay: as above
[22] = molecular target: HLA-A*30:01; assay: as above
[23] = molecular target: HLA-A*31:01; assay: as above
[24] = molecular target: HLA-A*69:01; assay: as above
[25] = molecular target: HLA-B*07:02; assay: as above
[26] = molecular target: HLA-B*08:01; assay: as above
[27] = molecular target: HLA-B*15:01; assay: as above
[28] = molecular target: HLA-B*27:05; assay: as above
[29] = molecular target: HLA-B*35:01; assay: as above
[30] = molecular target: HLA-B*40:01; assay: as above
[31] = molecular target: HLA-B*44:02; assay: as above
[32] = molecular target: HLA-B*58:01; assay: as above
[33] = molecular target: HLA-A*02:03; assay: IEDB peptide-MHC binding, purified MHC/competitive/fluorescence; filed as Kd, often an IC50 or EC50 that approximates it; ≥ and ≤ were set here for values at or beyond the usual limits of such assays
[34] = molecular target: HLA-B*15:02; assay: IEDB peptide-MHC binding, purified MHC/direct/fluorescence; filed as Kd, often an IC50 or EC50 that approximates it; ≥ and ≤ were set here for values at or beyond the usual limits of such assays; settings: source organism: Escherichia coli O157:H7
[35] = molecular target: HLA-B*46:01; assay: as above; settings: source organism: Escherichia coli O157:H7
[36] = molecular target: HLA-B*46:01; assay: IEDB peptide-MHC binding, purified MHC/competitive/fluorescence; filed as Kd, often an IC50 or EC50 that approximates it; ≥ and ≤ were set here for values at or beyond the usual limits of such assays
[37] = molecular target: HLA-B*15:01; assay: as above; settings: source organism: Francisella tularensis subsp. tularensis FSC198
[38] = molecular target: HLA-B*35:01; assay: as above; settings: source organism: West Nile virus
[39] = source organism: Rickettsia sibirica 246
[40] = source organism: Giardia lamblia ATCC 50803
[41] = source organism: Escherichia coli B171
[42] = source organism: Escherichia coli O157:H7
[43] = source organism: Francisella tularensis subsp. tularensis FSC198
[44] = source organism: Salmonella enterica subsp. enterica serovar Typhimurium
[45] = source organism: Pseudomonas aeruginosa UCBPP-PA14
[46] = source organism: Pseudomonas aeruginosa

Sequence: AMYDPQTYY
Kd [1, 39]: ≥ 20 µM | Kd [2, 39]: ≥ 20 µM | Kd [3, 39]: ≥ 20 µM | Kd [4, 39]: ≥ 20 µM | Kd [5, 39]: 0.0142 µM | Kd [6]: ≥ 20 µM | Kd [7, 39]: ≥ 20 µM | Kd [8, 39]: 0.0002 µM | Kd [9, 39]: ≥ 20 µM | Kd [10, 39]: ≥ 20 µM | Kd [11, 39]: ≥ 20 µM | Kd [12, 39]: ≥ 20 µM | Kd [13, 39]: ≥ 20 µM | Kd [14, 39]: ≥ 20 µM | Kd [15, 39]: ≥ 20 µM

Sequence: IPRQWHPFA
Kd [16, 40]: ≥ 20 µM | Kd [17, 40]: ≥ 20 µM | Kd [18, 40]: ≥ 20 µM | Kd [19, 40]: ≥ 20 µM | Kd [20, 40]: 10.6 µM | Kd [21, 40]: ≥ 20 µM | Kd [22, 40]: 4.66 µM | Kd [23, 40]: ≥ 20 µM | Kd [24, 40]: ≥ 20 µM | Kd [25, 40]: 0.154 µM | Kd [26, 40]: 3.8 µM | Kd [27, 40]: ≥ 20 µM | Kd [28, 40]: ≥ 20 µM | Kd [29, 40]: 1.1 µM | Kd [30, 40]: ≥ 20 µM | Kd [31, 40]: ≥ 20 µM | Kd [32, 40]: ≥ 20 µM

Kd [1, 41]: ≥ 20 µM | Kd [33, 41]: ≥ 20 µM | Kd [2, 41]: ≥ 20 µM | Kd [3, 41]: ≥ 20 µM | Kd [4, 41]: ≥ 20 µM | Kd [5, 41]: ≥ 20 µM | Kd [7, 41]: ≥ 20 µM | Kd [8, 41]: ≥ 20 µM | Kd [9, 41]: ≥ 20 µM | Kd [10, 41]: ≥ 20 µM | Kd [11, 41]: ≥ 20 µM | Kd [12, 41]: ≥ 20 µM | Kd [13, 41]: ≥ 20 µM | Kd [14, 41]: ≥ 20 µM | Kd [15, 41]: 0.209 µM
Sequence: KAIIDTAQF

Kd [16, 42]: ≥ 20 µM | Kd [17, 42]: ≥ 20 µM | Kd [18, 42]: ≥ 20 µM | Kd [19, 42]: 1.98 µM | Kd [21, 42]: ≥ 20 µM | Kd [24, 42]: ≥ 20 µM | Kd [25, 42]: ≥ 20 µM | Kd [26, 42]: ≥ 20 µM | Kd [27, 42]: 0.0796 µM | Kd [34]: 1.01 µM | Kd [28, 42]: 0.0907 µM | Kd [29, 42]: 0.0102 µM | Kd [30, 42]: ≥ 20 µM | Kd [31, 42]: ≥ 20 µM | Kd [35]: ≥ 20 µM | Kd [32, 42]: ≥ 20 µM
Sequence: LQLTAVFAY

Sequence: MLMFITSSH
Kd [18, 40]: 0.167 µM | Kd [19, 40]: 0.144 µM | Kd [22, 40]: ≥ 20 µM | Kd [36, 40]: 0.273 µM

Kd [27, 42]: 0.0751 µM | Kd [34]: 16 µM | Kd [35]: ≥ 20 µM
Sequence: RMFEKSTHH

Sequence: RSFPEWDYI
Kd [33, 43]: ≥ 20 µM | Kd [2, 43]: ≥ 20 µM | Kd [4, 43]: ≥ 20 µM | Kd [5, 43]: ≥ 20 µM | Kd [7, 43]: ≥ 20 µM | Kd [8, 43]: ≥ 20 µM | Kd [37]: ≥ 20 µM | Kd [11, 43]: ≥ 20 µM | Kd [12, 43]: ≥ 20 µM | Kd [13, 43]: ≥ 20 µM | Kd [36, 43]: ≥ 20 µM | Kd [14, 43]: ≥ 20 µM | Kd [15, 43]: 0.0979 µM

Sequence: RVNKGTGVK
Kd [16, 42]: ≥ 20 µM | Kd [17, 44]: 1.34 µM | Kd [18, 44]: 0.359 µM | Kd [19, 44]: 0.0606 µM | Kd [20, 44]: 0.437 µM | Kd [21, 42]: ≥ 20 µM | Kd [22, 44]: 0.00181 µM | Kd [23, 44]: 0.103 µM | Kd [24, 42]: ≥ 20 µM | Kd [25, 44]: 12.6 µM | Kd [26, 42]: ≥ 20 µM | Kd [27, 44]: 4.45 µM | Kd [28, 42]: ≥ 20 µM | Kd [30, 42]: ≥ 20 µM | Kd [31, 42]: ≥ 20 µM | Kd [32, 42]: ≥ 20 µM

Kd [16, 45]: ≥ 20 µM | Kd [17, 45]: ≥ 20 µM | Kd [18, 45]: ≥ 20 µM | Kd [19, 45]: ≥ 20 µM | Kd [20, 45]: ≥ 20 µM | Kd [21, 45]: ≥ 20 µM | Kd [22, 46]: 8.23 µM | Kd [23, 45]: ≥ 20 µM | Kd [24, 45]: ≥ 20 µM | Kd [25, 46]: 0.042 µM | Kd [26, 45]: ≥ 20 µM | Kd [27, 46]: ≥ 5 µM | Kd [28, 45]: ≥ 20 µM | Kd [29, 46]: 0.124 µM | Kd [30, 45]: ≥ 20 µM | Kd [32, 45]: ≥ 20 µM
Sequence: SPADERAVA

Sequence: TNPAITSRV
Kd ([9]; source organism: Vibrio cholerae 2740-80): 0.0217 µM

Sequence: WMILRAISF
Kd ([22]; source organism: West Nile virus SPU116/89): ≥ 20 µM | Kd [38]: 1.28 µM

From the Immune Epitope Database (IEDB)
